The target in assay [1] is human importin α3 (Impα3), intact (human). The assay is described as follows: other fluorescence titration; peptide 0-20 µM added to 3 µM Impα3 or ΔImpα3; 20 mM Tris pH 7.5, 5 mM TCEP, 150 mM NaCl, 5% glycerol; 25 °C; fluorescence at 330 nm.
The target in assay [2] is ΔImpα3, truncated importin α3 lacking the importin β-binding (IBB) domain (human). The assay is described as above.
For assay [3], the target named is human importin α3 (Impα3), intact (human). The assay is described as follows: BLI; BLItz; His-tagged Impα3 or ΔImpα3 immobilised on His-tag biosensors at 0.3 µM; peptides 1-7 µM; manufacturer's buffer; 25 °C; pseudo-first-order plots; apparent.
Assay [4] concerns the target ΔImpα3, truncated importin α3 lacking the importin β-binding (IBB) domain (human). The assay is described as above.
In assay [5] the target is human importin α3 (Impα3), intact (human). The assay is described as follows: ITC; PADI4 or peptide (100 µM) in the syringe titrated into importin (10 µM) in the cell; 20 mM Tris pH 7.5, 5 mM TCEP, 150 mM NaCl, 5% glycerol; 25 °C; single-site model.
For assay [6], the target named is ΔImpα3, truncated importin α3 lacking the importin β-binding (IBB) domain (human). Described as above.

From publication PMC9319256, “Human Enzyme PADI4 Binds to the Nuclear Carrier Importin α3” (Cells, 2022) come the findings set out here.

Sequence of human importin α3 (Impα3), intact (human) (O00629 whole entry, the tested form may be a part): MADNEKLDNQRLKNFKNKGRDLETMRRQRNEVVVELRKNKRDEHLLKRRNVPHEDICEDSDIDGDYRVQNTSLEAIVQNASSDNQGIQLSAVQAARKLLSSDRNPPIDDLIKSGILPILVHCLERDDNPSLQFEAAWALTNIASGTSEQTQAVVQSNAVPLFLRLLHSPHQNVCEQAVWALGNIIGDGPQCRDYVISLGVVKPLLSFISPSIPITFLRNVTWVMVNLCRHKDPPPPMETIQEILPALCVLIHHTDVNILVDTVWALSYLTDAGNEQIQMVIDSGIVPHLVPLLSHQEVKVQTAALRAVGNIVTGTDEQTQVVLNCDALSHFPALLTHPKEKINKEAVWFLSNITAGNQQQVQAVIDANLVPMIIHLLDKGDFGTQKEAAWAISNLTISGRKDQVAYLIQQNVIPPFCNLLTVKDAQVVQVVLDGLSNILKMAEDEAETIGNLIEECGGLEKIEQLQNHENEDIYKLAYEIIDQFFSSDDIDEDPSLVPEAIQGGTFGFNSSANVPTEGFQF

On to Ac-YKLFQEQQNEGHGEALLFEGIKKKKQQKI-NH2 [NLS2-PADI4 peptide], for which the Kd in assay [1] amounted to 4 µM; in assay [2] it was 4 µM; in assay [3] it was 99 µM; in assay [4], 12 µM; in assay [5], 23 µM; in assay [6] it was 4.3 µM. The results for the koff in assay [3] and in assay [4] were 0.32 s⁻¹ and 0.23 s⁻¹, respectively. For the same molecule, the kon in assay [3] turned out to be 3000 M⁻¹ s⁻¹; in assay [4], 20000 M⁻¹ s⁻¹. Moreover, the Ka in assay [5] came out at 43000 M⁻¹; in assay [6], 230000 M⁻¹. Further, the dH was -35.7 kcal/mol in assay [5] and -11.2 kcal/mol in assay [6]. Besides, the results for the stoichiometry N in assay [5] and in assay [6] were 1.08 and 1.1, respectively.
